According to paper PMC5777247, “Cohesin SA2 is a sequence-independent DNA-binding protein that recognizes DNA replication and repair intermediates”:
Where “and” joins values, the source holds several entries; their conditions need not be identical. Identical values can stand only once.

Legend:
[1] = target: T1, SA2 (STAG2), full length (human, UniProt Q8N3U4 1-1231); experiment: AFM; details: Anisotropy: 20 mM Hepes pH 7.5, 0.1 mM MgCl2, 0.5 mM DTT, 100 mM KCl, 1 nM DNA, AFM: 20 mM Hepes pH 7.5, 100 mM KCl, 0.1 mM MgCl2, room temperature, 20 min
T1 sequence: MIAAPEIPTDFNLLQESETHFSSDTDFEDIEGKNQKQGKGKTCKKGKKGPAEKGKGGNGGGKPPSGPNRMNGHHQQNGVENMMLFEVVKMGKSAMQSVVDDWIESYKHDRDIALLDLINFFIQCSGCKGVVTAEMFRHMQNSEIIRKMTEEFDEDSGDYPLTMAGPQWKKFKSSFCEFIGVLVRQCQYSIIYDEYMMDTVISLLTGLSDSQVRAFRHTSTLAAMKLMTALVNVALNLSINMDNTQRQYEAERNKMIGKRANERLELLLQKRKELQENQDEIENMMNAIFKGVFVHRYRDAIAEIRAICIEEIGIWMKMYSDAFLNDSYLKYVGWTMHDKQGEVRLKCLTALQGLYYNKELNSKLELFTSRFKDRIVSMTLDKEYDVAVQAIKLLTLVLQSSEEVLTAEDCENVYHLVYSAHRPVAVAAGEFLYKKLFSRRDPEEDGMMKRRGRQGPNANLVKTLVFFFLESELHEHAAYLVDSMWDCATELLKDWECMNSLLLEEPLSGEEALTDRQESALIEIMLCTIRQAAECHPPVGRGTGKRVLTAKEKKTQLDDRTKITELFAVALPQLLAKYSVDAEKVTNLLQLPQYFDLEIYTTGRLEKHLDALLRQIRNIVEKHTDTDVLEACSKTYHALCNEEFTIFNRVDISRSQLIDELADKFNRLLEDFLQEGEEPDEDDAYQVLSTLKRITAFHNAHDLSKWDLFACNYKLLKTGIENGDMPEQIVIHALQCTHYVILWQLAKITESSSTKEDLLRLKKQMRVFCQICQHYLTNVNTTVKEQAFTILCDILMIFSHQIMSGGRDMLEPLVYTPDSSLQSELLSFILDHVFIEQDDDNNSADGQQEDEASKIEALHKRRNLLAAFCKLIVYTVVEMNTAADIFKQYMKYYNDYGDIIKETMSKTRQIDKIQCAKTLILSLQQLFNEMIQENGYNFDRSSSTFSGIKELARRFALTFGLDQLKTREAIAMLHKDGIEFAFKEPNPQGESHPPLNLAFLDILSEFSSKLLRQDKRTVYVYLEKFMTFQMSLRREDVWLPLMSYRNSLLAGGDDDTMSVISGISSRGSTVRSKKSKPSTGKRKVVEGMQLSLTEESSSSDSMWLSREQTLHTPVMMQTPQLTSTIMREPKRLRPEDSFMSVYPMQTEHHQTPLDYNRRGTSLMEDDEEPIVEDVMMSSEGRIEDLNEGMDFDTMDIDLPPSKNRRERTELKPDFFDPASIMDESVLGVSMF

[2] = target: His-tagged full-length SA2 (amino acids 1-1231, 141 kDa) (human) (UniProt Q8N3U4); experiment: single-molecule fluorescence imaging on DNA tightropes; QD-labeled His-SA2 on DNA tightropes (centromeric, telomeric, gapped) between silica beads, oblique angle TIRF, no buffer flow; encounters of SA2-QDs on DNA followed in kymographs
[3] = target: His-tagged full-length SA2 (amino acids 1-1231, 141 kDa) (human) (UniProt Q8N3U4); experiment: AFM volume analysis; SA2 incubated with linear DNA substrates in 20 mM Hepes (pH 7.5), 100 mM KCl, 0.1 mM MgCl2 at room temperature for 20 min, deposited on mica; number of SA2 molecules in DNA-bound complexes from the AFM volume calibration curve
[4] = target: T1, SA2 (STAG2), full length; experiment: fluorescence anisotropy; details: Anisotropy: 20 mM Hepes pH 7.5, 0.1 mM MgCl2, 0.5 mM DTT, 100 mM KCl, 1 nM DNA; AFM: 20 mM Hepes pH 7.5, 100 mM KCl, 0.1 mM MgCl2, room temperature, 20 min
[5] = target: T2, SA2 1-1051 (human, UniProt Q8N3U4 1-1051); experiment: AFM; details: Anisotropy: 20 mM Hepes pH 7.5, 0.1 mM MgCl2, 0.5 mM DTT, 100 mM KCl, 1 nM DNA, AFM: 20 mM Hepes pH 7.5, 100 mM KCl, 0.1 mM MgCl2, room temperature, 20 min
T2 sequence: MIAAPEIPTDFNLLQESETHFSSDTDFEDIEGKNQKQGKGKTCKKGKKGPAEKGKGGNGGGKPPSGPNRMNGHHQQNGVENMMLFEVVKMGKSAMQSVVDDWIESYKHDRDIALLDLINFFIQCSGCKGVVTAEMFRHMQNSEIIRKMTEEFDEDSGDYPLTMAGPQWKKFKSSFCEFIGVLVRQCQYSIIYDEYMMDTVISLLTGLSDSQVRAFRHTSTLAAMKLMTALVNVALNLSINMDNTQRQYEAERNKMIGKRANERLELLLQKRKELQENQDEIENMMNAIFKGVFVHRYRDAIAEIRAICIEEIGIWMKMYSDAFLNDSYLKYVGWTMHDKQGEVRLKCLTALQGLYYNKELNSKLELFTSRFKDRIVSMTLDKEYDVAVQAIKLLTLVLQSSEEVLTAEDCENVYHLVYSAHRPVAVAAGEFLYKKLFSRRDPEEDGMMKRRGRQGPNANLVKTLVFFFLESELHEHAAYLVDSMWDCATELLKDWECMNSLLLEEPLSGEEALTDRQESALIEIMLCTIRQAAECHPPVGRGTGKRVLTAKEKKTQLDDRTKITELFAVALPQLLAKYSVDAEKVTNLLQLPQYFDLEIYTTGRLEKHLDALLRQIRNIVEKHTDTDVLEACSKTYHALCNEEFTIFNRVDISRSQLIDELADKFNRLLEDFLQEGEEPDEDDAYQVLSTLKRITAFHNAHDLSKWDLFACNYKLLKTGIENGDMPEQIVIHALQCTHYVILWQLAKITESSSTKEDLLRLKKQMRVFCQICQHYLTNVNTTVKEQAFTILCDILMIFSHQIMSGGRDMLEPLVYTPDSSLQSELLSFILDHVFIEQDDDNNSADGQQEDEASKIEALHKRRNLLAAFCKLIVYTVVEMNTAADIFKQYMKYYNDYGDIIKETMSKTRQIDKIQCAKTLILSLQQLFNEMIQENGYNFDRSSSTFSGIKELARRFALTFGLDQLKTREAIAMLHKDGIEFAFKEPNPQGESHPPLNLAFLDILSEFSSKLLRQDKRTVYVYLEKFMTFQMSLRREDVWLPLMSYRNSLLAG

[6] = target: T1, SA2 (STAG2), full length; experiment: fluorescence anisotropy; uncertain: low saturation; Anisotropy: 20 mM Hepes pH 7.5, 0.1 mM MgCl2, 0.5 mM DTT, 100 mM KCl, 1 nM DNA; AFM: 20 mM Hepes pH 7.5, 100 mM KCl, 0.1 mM MgCl2, room temperature, 20 min; details: protein: recombinant; tags: 6xHis; label: 5' Alexa 488
[7] = target: T2, SA2 1-1051; experiment: fluorescence anisotropy; Anisotropy: 20 mM Hepes pH 7.5, 0.1 mM MgCl2, 0.5 mM DTT, 100 mM KCl, 1 nM DNA; AFM: 20 mM Hepes pH 7.5, 100 mM KCl, 0.1 mM MgCl2, room temperature, 20 min; details: protein: recombinant; tags: 6xHis; label: Alexa 488; blunt
[8] = target: T1, SA2 (STAG2), full length; experiment: as above; details: protein: recombinant, tags: 6xHis
[9] = DNA ends vs internal, no centromere preference

Molecule Cen-end DNA has a binding signal [1, 9] of 2600 KSP/KNSP.

Cen-mid DNA was tested, and the binding signal [1, 9] was 2130 KSP/KNSP.

With “His-tagged full-length SA2 (amino acids 1-1231, 141 kDa) (from UniProt Q8N3U4 1-1231) (natural protein)” the percent of SA2-SA2 encounters on DNA that formed complexes [2] was 8% and the stoichiometry N (SA2 molecules) [3] was 5 and 4.

circular replication fork template was tested, and the binding signal ([1]; 55.6% of bound SA2 at fork junction) was 26 % DNA bound.

For ds66 telomeric, the Kd [4] was 88 nM.

linear flap DNA (AFM) was tested, and the binding signal ([1]; flap vs internal) was 4260 KSP/KNSP.

Work on linear gapped DNA yielded a binding signal ([5]; DNA ends vs internal, substrate for end value inferred) of 1690 KSP/KNSP, a binding signal ([5]; ssDNA gap vs internal) of 1810 KSP/KNSP and a binding signal ([1]; ssDNA gap vs internal) of 1990 KSP/KNSP.

Molecule linear replication fork DNA (AFM) has a binding signal ([1]; replication fork vs internal) of 3150 KSP/KNSP.

For linear single-stranded fork DNA (AFM), the binding signal ([1]; fork vs internal) was 2950 KSP/KNSP.

For replication fork (anisotropy), the Kd [4] was 133 nM.

B1: ss25 (ssDNA)
DNA: TGTCGCATAGTGTAGTCGGTCTTGT
For B1, the Kd [6] was about 445 nM.

B2: ds66 non-telomeric (Alexa ss66 + ss66-com) (dsDNA)
DNA 1: CTGGATCCGTACAGTGTAAGGGTGAGTGGTTGGGTGTGTGGGTGTTGATGTAGAACAAGAATTCGA
DNA 2: TCGAATTCTTGTTCTACATCAACACCCACACACCCAACCACTCACCCTTACACTGTACGGATCCAG
With B2 the Kd [7] was 198 nM and the Kd ([8]; label: Alexa 488, blunt) was 76.2 ± 3.9 nM.

B3: ss45 (oligo 1) (ssDNA)
DNA: TGTCGCATAGTGTAGTCGGTCTTGTTCGGTCATAGCTCATCGTGG
B3 was tested, and the Kd ([8]; label: 5' Alexa 488) was 118 ± 5.3 nM.

B4: ds45 (oligo 1 + oligo 2) (dsDNA)
DNA 1: TGTCGCATAGTGTAGTCGGTCTTGTTCGGTCATAGCTCATCGTGG
DNA 2: CCACGATGAGCTATGACCGAACAAGACCGACTACACTATGCGACA
Molecule B4 has a Kd ([8]; label: 5' Alexa 488 on strand 1, blunt) of 175 ± 12.9 nM.

B5: ss15 (ssDNA)
DNA: TGTCGCATAGTGTAG
With B5 the Kd [6] was about 1000 nM.
